Laboratory results published in US20240100174A1, “PROTEIN-PEG INTERACTIONS THAT REDIRECT THE THERMAL UNFOLDING PATHWAY OF PEGYLATED HUMAN GALECTIN-3C” (UNIVERSITY OF FLORIDA RESEARCH FOUNDATION, INCORPORATED, priority 2022, published 2024).
Where “and” joins values, the source holds several entries; their conditions need not be identical. Identical values can stand only once.

Experiments:
[1] = Variable temperature circular dichroism (CD) thermal unfolding; assay type: physicochemical; settings: for fitted melting temperature (Tm): CD at 220 nm
Method: CD spectroscopic data were recorded with an Applied Photophysics™ Chirascan spectrophotometer equipped with a Quantum Northwestern Peltier temperature control device and operating with Chirascan v4.7.0 and Pro-Data™ Viewer software. Samples were prepared in PBS at final concentrations of 10 μM. All samples were contained in 2 mm tapered quartz cuvettes, and a temperature probe was inserted through the cuvette cap to monitor the sample temperature in real time. The following parameters were used for constant temperature experiments: CD signal measured in millidegrees, bandwidth of 1.0 nm, wavelength scan from 200-280 nm, step size of 2.0 nm. Spectra were background subtracted against the sample buffer. For thermal unfolding experiments, a linear thermal ramp was applied from 30° C. to 90° C. at 1° C. per minute. All spectra were measured in triplicate, and data were normalized to account for slight differences in protein concentration.
To calculate melting temperatures of unconjugated Gal3C, Gal3C[T243C], and Gal3C[T243C] variants containing lysine replacements, the normalized data were fit to a Boltzmann sigmoidal function in Origin v8.5. For the data fitting, no parameters were fixed, and the ‘x’ parameter defined as the center of the data was interpreted as the melting temperature (Tm). Variable temperature CD data of PEGylated Gal3C[T243C] and Gal3C[T243C] variants were fit with a sum of two Boltzmann sigmoidal functions, as shown below:
where ‘A1’, ‘A2’, and ‘A3’ represent three plateaus of the CD signal, ‘dx1’ and ‘dx2’ are the change in x between the plateaus for each melting transition, and ‘x1’ and ‘x2’ are the two Tm values extracted by the fit for the first and second unfolding transitions, respectively. Because the third plateau, A3, occurred at temperatures higher than the experimentally accessible range, this value was estimated. A single wavelength for plotting on the y-axis was selected by calculating the wavelength of greatest CD signal change for each PEGylated construct.
To record a CD spectrum of Gal3C[T243C] with free PEG, a stock solution of methoxy-PEG (mPEG) in 1×PBS was added immediately before the experiment to a solution containing protein (20 μM, 1 ×PBS) to a final concentration of 22 μM mPEG. All thermal melt parameters were the same as listed in the above described experiments.
CD spectroscopic data were recorded with an Applied Photophysics Chirascan spectrophotometer equipped with a Quantum Northwestern Peltier temperature control device and operating with Chirascan v4.7.0 and Pro-Data Viewer software, following procedures used in our previous study.^4 Spectra were background subtracted against the sample buffer. For thermal unfolding experiments, a linear thermal ramp was applied from 30° C. to 90° C. at 1° C. per minute with samples concentrated to 10 μM in PBS. All spectra were measured in triplicate, and data were normalized to account for slight differences in protein concentration.
Full wavelength (200-280 nm) CD spectra for each construct (FIG. 43) were used to calculate a wavelength of greatest change (222 or 224 nm) to create single wavelength CD vs. temperature plots (FIG. 30H-J and FIG. 31F-G). The single wavelength CD signal vs. temperature plot of Gal3C[T243C] used data acquired at 220 nm, which was the wavelength of greatest change for the unmodified protein. To calculate melting temperatures, the normalized data were fit to a Boltzmann sigmoidal function in Origin v8.5. For the data fitting, no parameters were fixed, and the ‘x’ parameter defined as the center of the data was interpreted as the melting temperature (Tm).

[2] = Equilibrium binding of lactose, intrinsic tryptophan fluorescence; settings: ligand lactose; average ± standard deviation of 3 replicated experiments; PBS; read-out: Kd (equilibrium binding constant)
Method: Equilibrium binding data were recorded using a protocol adapted from a previous procedure from Restuccia, et al (38). Intrinsic tryptophan fluorescence was monitored using a Cary Eclipse™ Fluorescence Spectrophotometer (Agilent) operating with Cary Eclipse™ WinFLR software version 1.2 in ‘Scan Mode’. The instrument method parameters were as follows: excitation wavelength was 280 nm, the acquisition range was from 290 nm to 440 nm and the photomultiplier tube sensitivity was set to ‘medium’. Samples were prepared at final concentrations of 1 μM for Gal3C[T243C] or 5 μM Gal3C[T243C]-PEG in 800 ∥L, in PBS for each titration. Samples were pipetted into 0.7×0.7 cm quartz cuvettes with a micro stir bar. Each new experiment was first zeroed against PBS to remove the small background signal from the buffer. […]
The binding affinity and specificity of Gal3C[T243C]-PEG was compared with Gal3C[T243C] and Gal3C (see FIG. 1C, FIG. 9 and FIG. 10) via an inherent tryptophan fluorescence assay optimized to ensure equilibrium binding conditions. Binding of lactose or LacNac quenches the fluorescence of W181, located adjacent to the bound sugar in the crystal structure of Gal3C, thus permitting direct measurement of ligand Kd values.

B1: Gal3C[T243C]: Gal3C variant with a single extrinsic cysteine at position 243; SEQ ID NO: 11 (protein)
chain: MAGPLIVPYNLPLPGGVVPRMLITILGTVKPNANRIALDFQRGNDVAFHFNPRFNENNRRVIVCNTKLDNNWGREERQSVFPFESGKPFKIQVLVEPDHFKVAVNDAHLLQYNHRVKKLNEISKLGISGDIDLTSASYCMILEHHHHHH
With B1 the “fitted melting temperature (Tm)” value ([1]; 20 μM protein in the absence of free PEG-OH) was 57.5 °C, the “fitted melting temperature (Tm)” value ([1]; 20 μM protein in the presence of 22 μM free PEG-OH) was 57.7 °C and the “Tm1 ± StDev” value ([1]; normalized CD at 220 nm vs. temperature, 3 replicates averaged, ramp 30-90° C. at 1° C. per minute) was 58.1 °C and 58.1 ± 0.5 °C. The “thermal unfolding behaviour / formation of unfolding intermediate” value ([1]; result in words, for polymer conjugates the selected SEC fractions) was “single cooperative unfolding transition”, the “Tm / Tm1” value ([1]; values of Summary of Results, Tm for unconjugated protein, Tm1 for PEG conjugate) was 58.0 °C and the Kd [2] was 413 ± 102 µM.
